Measured values from PMC9045774, “The prominent role of a CDR1 somatic hypermutation for convergent IGHV3-53/3-66 antibodies in binding to SARS-CoV-2” (Emerging Microbes & Infections, 2022).

Target: T1, SARS-CoV-2 receptor-binding domain (RBD) (SARS-CoV-2, ancestral (Wuhan-Hu-1) …, UniProt P0DTC2)
T1 construct: also called SARS-CoV-2 RBD
Experiment: not stated; binding affinities of the residue-27 germline revertants of BD-236, COVOX-222 and CV30 (supplementary Fig. S5); method not named in the sentence (BLI in the experiments around it)

Row | Binder | fold decrease of affinity against BD-236 [fold] | fold decrease of affinity against COVOX-222 [fold]
1 | BD-236, germline format at residue 27 (reverse mutation) (antibody, V domains shown, as the heavy chain of m10 (PDB 7CHB) with residue 27 reverted to the germline F; as the light chain of m10) VH: EVQLVESGGGLIQPGGSLRLSCAASGFTVSSNYMSWVRQAPGKGLEWVSVIYSGGSTDYADSVKGRFTISRDKSKNTLYLQMNSLRAEDTAVYYCARDLGEAGGMDVWGQGTTVTVSS VL: AIQLTQSPSSLSASVGDRVTITCRASQGISSYLAWYQQKPGKAPKLLIYAASTLQSGVPSRFSGSGSGTDFTLTISSLQPEDFATYYCQQLNSYPPAFGGGTKVEIK | 1.37 | 
2 | COVOX-222, germline format at residue 27 (reverse mutation) (antibody, V domains shown, as the heavy chain of m12 (PDB 7NX6) with residue 27 reverted to the germline F; as the light chain of m12; also called germline format of COVOX-222) VH: EVQLVESGGGLIQPGGSLRLSCAASGFTVSSNYMSWVRQAPGKGLEWVSVIYSGGSTFYADSVKGRFTISRDNSKNTLYLQMNSLGAEDTAVYYCARGEGSPGNWFDPWGQGTLVTVSS VL: DVVMTQSPGTLSLSPGERATLSCRASQSVPSSYLAWYQQKPGQAPRLLIYGASTRATGIPDRFSGSGSGTDFTLTISRLEPEDFAVYYCQHYDTSPRFGGGTKVDIK |  | 2.02
